From PMC2760576

How the values were obtained:
[1] = target: integrin α6β1 (human (endogenous in FHCC98 and SMMC-7721)) (UniProt P05556)
[2] = target: integrin α6β1 (human (endogenous in FHCC98 and SMMC-7721)) (UniProt P05556); remark: listed apart in the source
[3] = target: integrin α6β1 (human (endogenous in FHCC98 and SMMC-7721)) (UniProt P05556); remark: listed apart in the source
[4] = target: integrin α6β1 (human (endogenous in FHCC98 and SMMC-7721)) (UniProt P05556); remark: listed apart in the source

Sequence of UniProt P05556 (P05556 whole entry, looked up): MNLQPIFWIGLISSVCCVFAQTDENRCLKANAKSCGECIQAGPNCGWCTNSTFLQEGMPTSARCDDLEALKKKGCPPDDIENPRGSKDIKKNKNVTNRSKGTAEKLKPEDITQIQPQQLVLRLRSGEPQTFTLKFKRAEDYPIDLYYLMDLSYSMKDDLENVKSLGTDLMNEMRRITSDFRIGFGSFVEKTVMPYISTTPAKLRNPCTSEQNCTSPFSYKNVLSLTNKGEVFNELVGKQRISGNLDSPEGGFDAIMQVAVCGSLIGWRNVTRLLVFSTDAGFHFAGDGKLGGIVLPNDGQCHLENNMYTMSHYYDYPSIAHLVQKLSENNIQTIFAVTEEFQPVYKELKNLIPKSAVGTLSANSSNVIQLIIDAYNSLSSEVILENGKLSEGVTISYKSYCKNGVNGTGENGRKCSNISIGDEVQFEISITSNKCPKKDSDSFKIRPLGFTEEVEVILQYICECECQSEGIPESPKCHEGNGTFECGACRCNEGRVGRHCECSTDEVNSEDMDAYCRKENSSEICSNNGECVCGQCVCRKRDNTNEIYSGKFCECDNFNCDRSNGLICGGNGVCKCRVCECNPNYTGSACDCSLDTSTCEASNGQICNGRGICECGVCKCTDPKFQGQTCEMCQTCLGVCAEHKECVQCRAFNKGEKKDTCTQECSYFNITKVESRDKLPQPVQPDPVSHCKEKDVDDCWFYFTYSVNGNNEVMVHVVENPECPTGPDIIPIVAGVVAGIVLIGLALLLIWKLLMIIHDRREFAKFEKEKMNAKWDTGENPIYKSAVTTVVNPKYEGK

gelatin zymography, reduction of the density of MMPs of FHCC98 cells versus the blank group; sncRNA + GoH3 + 3S3 [1]: 29.1%
gelatin zymography, reduction of the density of MMPs of FHCC98 cells versus the blank group; sncRNA + anti-α6 mAb GoH3 [1]: 32.5%
gelatin zymography, reduction of the density of MMPs of FHCC98 cells versus the blank group; sncRNA + anti-β1 mAb 3S3 [1]: 34.8%
Matrigel invasion of 7721 cells, reduction of invasive cell numbers versus the blank control group; anti-α6 mAb [2]: 27.2%
gelatin zymography, reduction of MMP density of 7721 cells versus the blank control group; anti-α6 mAb [3]: 22.8%
gelatin zymography, reduction of the density of MMPs of FHCC98 cells versus the blank control group; anti-α6 mAb [3]: 18.8%
Matrigel invasion of FHCC98 cells, reduction of invasive cell numbers versus the blank group; sncRNA + GoH3 + 3S3 [4]: 34.9%
Matrigel invasion of FHCC98 cells, reduction of invasive cell numbers versus the blank group; sncRNA + anti-α6 mAb GoH3 [4]: 32.4%
Matrigel invasion of FHCC98 cells, reduction of invasive cell numbers versus the blank group; sncRNA + anti-β1 mAb 3S3 [4]: 31.1%
Substance: HAb18G/CD147 (from UniProt P35613 22-385) (natural protein)
